Source: article PMC2776356 (2009)

B1: wild-type GST-Nkd1 [human] / in vitro translated ^35[S]-labelled Dvl1 [modified: 35S-methionine label; 35S-methionine label] [human] (parent complex)
chain 1: MGKLHSKPAAVCKRRESPEGDSFAVSAAWARKGIEEWIGRQRCPGGVSGPRQLRLAGTIGRSTRELVGDVLRDTLSEEEEDDFRLEVALPPEKTDGLGSGDEKKMERVSEPCPGSKKQLKFEELQCDVSMEEDSRQEWTFTLYDFDNNGKVTREDITSLLHTIYEVVDSSVNHSPTSSKMLRVKLTVAPDGSQSKRSVLVNQADLQSARPRAETKPTEDLRSWEKKQRAPLRFQGDSRLEQSGCYHHCVDENIERRNHYLDLAGIENYTSQFGPGSPSVAQKSELPPRTSNPTRSRSHEPEAIHIPHRKPQGVDPASFHFLDTPIAKVSELQQRLRGTQDGSKHFVRSPKAQGKSVGVGHVARGARNKPPLGPAIPAVSPSAHLAASPALLPSLAPLGHKKHKHRAKESQQGCRGLQAPLASGGPVLGREHLRELPALVVYESQAGQPVQRHEHHHHHEHHHHYHHFYQT
chain 2: MAETKIIYHMDEEETPYLVKLPVAPERVTLADFKNVLSNRPVHAYKFFFKSMDQDFGVVKEEIFDDNAKLPCFNGRVVSWLVLAEGAHSDAGSQGTDSHTDLPPPLERTGGIGDSRPPSFHPNVASSRDGMDNETGTESMVSHRRERARRRNREEAARTNGHPRGDRRRDVGLPPDSASTALSSELESSSFVDSDEDGSTSRLSSSTEQSTSSRLIRKHKRRRRKQRLRQADRASSFSSITDSTMSLNIVTVTLNMERHHFLGISIVGQSNDRGDGGIYIGSIMKGGAVAADGRIEPGDMLLQVNDVNFENMSNDDAVRVLREIVSQTGPISLTVAKCWDPTPRSYFTVPRADPVRPIDPAAWLSHTAALTGALPRYGTSPCSSAVTRTSSSSLTSSVPGAPQLEEAPLTVKSDMSAVVRVMQLPDSGLEIRDRMWLKITIANAVIGADVVDWLYTHVEGFKERREARKYASSLLKHGFLRHTVNKITFSEQCYYVFGDLCSNLATLNLNSGSSGTSDQDTLAPLPHPAAPWPLGQGYPYQYPGPPPCFPPAYQDPGFSYGSGSTGSQQSEGSKSSGSTRSSRRAPGREKERRAAGAGGSGSESDHTAPSGVGSSWRERPAGQLSRGSSPRSQASATAPGLPPPHPTTKAYTVVGGPPGGPPVRELAAVPPELTGSRQSFQKAMGNPCEFFVDIM
B2: wild-type GST-Nkd1 [human] / in vitro translated ^35[S]-labelled Dvl3 [modified: 35S-methionine label; 35S-methionine label] [human] (parent complex)
chain 1: B1 chain 1
chain 2: MGETKIIYHLDGQETPYLVKLPLPAERVTLADFKGVLQRPSYKFFFKSMDDDFGVVKEEISDDNAKLPCFNGRVVSWLVSAEGSHPDPAPFCADNPSELPPPMERTGGIGDSRPPSFHPHAGGGSQENLDNDTETDSLVSAQRERPRRRDGPEHATRLNGTAKGERRREPGGYDSSSTLMSSELETTSFFDSDEDDSTSRFSSSTEQSSASRLMRRHKRRRRKQKVSRIERSSSFSSITDSTMSLNIITVTLNMEKYNFLGISIVGQSNERGDGGIYIGSIMKGGAVAADGRIEPGDMLLQVNEINFENMSNDDAVRVLREIVHKPGPITLTVAKCWDPSPRGCFTLPRSEPIRPIDPAAWVSHTAAMTGTFPAYGMSPSLSTITSTSSSITSSIPDTERLDDFHLSIHSDMAAIVKAMASPESGLEVRDRMWLKITIPNAFIGSDVVDWLYHNVEGFTDRREARKYASNLLKAGFIRHTVNKITFSEQCYYIFGDLCGNMANLSLHDHDGSSGASDQDTLAPLPHPGAAPWPMAFPYQYPPPPHPYNPHPGFPELGYSYGGGSASSQHSEGSRSSGSNRSGSDRRKEKDPKAGDSKSGGSGSESDHTTRSSLRGPRERAPSERSGPAASEHSHRSHHSLASSLRSHHTHPSYGPPGVPPLYGPPMLMMPPPPAAMGPPGAPPGRDLASVPPELTASRQSFRMAMGNPSEFFVDVM
B3: wild-type GST-Nkd1 [human] / in vitro translated ^35[S]-labelled Dvl2 [modified: 35S-methionine label; 35S-methionine label] [not stated (human or mouse cDNA cloned)] (parent complex)
chain 1: B1 chain 1
chain 2: MAGSSTGGGGVGETKVIYHLDEEETPYLVKIPVPAERITLGDFKSVLQRPAGAKYFFKSMDQDFGVVKEEISDDNARLPCFNGRVVSWLVSSDNPQPEMAPPVHEPRAELAPPAPPLPPLPPERTSGIGDSRPPSFHPNVSSSHENLEPETETESVVSLRRERPRRRDSSEHGAGGHRTGGPSRLERHLAGYESSSTLMTSELESTSLGDSDEEDTMSRFSSSTEQSSASRLLKRHRRRRKQRPPRLERTSSFSSVTDSTMSLNIITVTLNMEKYNFLGISIVGQSNERGDGGIYIGSIMKGGAVAADGRIEPGDMLLQVNDMNFENMSNDDAVRVLRDIVHKPGPIVLTVAKCWDPSPQAYFTLPRNEPIQPIDPAAWVSHSAALTGTFPAYPGSSSMSTITSGSSLPDGCEGRGLSVHTDMASVTKAMAAPESGLEVRDRMWLKITIPNAFLGSDVVDWLYHHVEGFPERREARKYASGLLKAGLIRHTVNKITFSEQCYYVFGDLSGGCESYLVNLSLNDNDGSSGASDQDTLAPLPGATPWPLLPTFSYQYPAPHPYSPQPPPYHELSSYTYGGGSASSQHSEGSRSSGSTRSDGGAGRTGRPEERAPESKSGSGSESEPSSRGGSLRRGGEASGTSDGGPPPSRGSTGGAPNLRAHPGLHPYGPPPGMALPYNPMMVVMMPPPPPPVPPAVQPPGAPPVRDLGSVPPELTASRQSFHMAMGNPSEFFVDVM

Variants of: B1
Assay: GST-pulldown; parent: 1; read off a plot

Q: How did the ratio to parent turn out when chain 1 MGKLHSKPAAVCKRRESPEGDSFAVSAAWARKGIEEWIGRQRCPGGVSGPRQLRLAGTIGRSTRELVGDVLRDTLSEEEEDDFRLEVALPPEKTDGLGSGDEKKMERVSEPCPGSKKQLKFEELQCDVSMEEDSRQEWTFTLYDFDNNGKVTREDITSLLHTIYEVVDSSVNHSPTSSKMLRVKLTVAPDGSQSKRSVLVNQADLQSARPRAETKPTEDLRSWEKKQRAPLRFQGDSRLEQSGCYHHCVDENIERRNHYLDLAGIENYTSQFGPGSPSVAQKSELPPHTSNPTRSRSHEPEAIHIPHRKPQGVDPASFHFLDTPIAKVSELQQRLRGTQDGSKHFVRSPKAQGKSVGVGHVARGARNKPPLGPAIPAVSPSAHLAASPALLPSLAPLGHKKHKHRAKESQQGCRGLQAPLASGGPVLGREHLRELPALVVYESQAGQPVQRHEHHHHHEHHHHYHHFYQT [chain 1 R288H] was run?
A: ~0.19

Variants of: B1
Assay: yeast two-hybrid (quantitative ONPG assay); parent: 6.2; read off a plot

Q: How did the response turn out when chain 1 MGKLHSKPAAVCKRRESPEGDSFAVSAAWARKGIEEWIGRQRCPGGVSGPRQLRLAGTIGRSTRELVGDVLRDTLSEEEEDDFRLEVALPPEKTDGLGSGDEKKMERVSEPCPGSKKQLKFEELQCDVSMEEDSRQEWTFTLYDFDNNGKVTREDITSLLHTIYEVVDSSVNHSPTSSKMLRVKLTVAPDGSQSKRSVLVNQADLQSARPRAETKPTEDLRSWEKKQRAPLRFQGDSRLEQSGCYHHCVDENIERRNHYLDLAGIENYTSQFGPGSPSVAQKSELPPHTSNPTRSRSHEPEAIHIPHRKPQGVDPASFHFLDTPIAKVSELQQRLRGTQDGSKHFVRSPKAQGKSVGVGHVARGARNKPPLGPAIPAVSPSAHLAASPALLPSLAPLGHKKHKHRAKESQQGCRGLQAPLASGGPVLGREHLRELPALVVYESQAGQPVQRHEHHHHHEHHHHYHHFYQT [chain 1 R288H] was run?
A: ~2.4 ONPG units

Variants of: B2
Assay: GST-pulldown; parent: 1; read off a plot

Q: For chain 1 MGKLHSKPAAVCKRRESPEGDSFAVSAAWARKGIEEWIGRQRCPGGVSGPRQLRLAGTIGRSTRELVGDVLRDTLSEEEEDDFRLEVALPPEKTDGLGSGDEKKMERVSEPCPGSKKQLKFEELQCDVSMEEDSRQEWTFTLYDFDNNGKVTREDITSLLHTIYEVVDSSVNHSPTSSKMLRVKLTVAPDGSQSKRSVLVNQADLQSARPRAETKPTEDLRSWEKKQRAPLRFQGDSRLEQSGCYHHCVDENIERRNHYLDLAGIENYTSQFGPGSPSVAQKSELPPHTSNPTRSRSHEPEAIHIPHRKPQGVDPASFHFLDTPIAKVSELQQRLRGTQDGSKHFVRSPKAQGKSVGVGHVARGARNKPPLGPAIPAVSPSAHLAASPALLPSLAPLGHKKHKHRAKESQQGCRGLQAPLASGGPVLGREHLRELPALVVYESQAGQPVQRHEHHHHHEHHHHYHHFYQT [chain 1 R288H], which ratio to parent is on record?
A: ~0.7

Variants of: B2
Assay: yeast two-hybrid (quantitative ONPG assay); parent: 4; read off a plot

Q: chain 1 MGKLHSKPAAVCKRRESPEGDSFAVSAAWARKGIEEWIGRQRCPGGVSGPRQLRLAGTIGRSTRELVGDVLRDTLSEEEEDDFRLEVALPPEKTDGLGSGDEKKMERVSEPCPGSKKQLKFEELQCDVSMEEDSRQEWTFTLYDFDNNGKVTREDITSLLHTIYEVVDSSVNHSPTSSKMLRVKLTVAPDGSQSKRSVLVNQADLQSARPRAETKPTEDLRSWEKKQRAPLRFQGDSRLEQSGCYHHCVDENIERRNHYLDLAGIENYTSQFGPGSPSVAQKSELPPHTSNPTRSRSHEPEAIHIPHRKPQGVDPASFHFLDTPIAKVSELQQRLRGTQDGSKHFVRSPKAQGKSVGVGHVARGARNKPPLGPAIPAVSPSAHLAASPALLPSLAPLGHKKHKHRAKESQQGCRGLQAPLASGGPVLGREHLRELPALVVYESQAGQPVQRHEHHHHHEHHHHYHHFYQT [chain 1 R288H] was tested. Which response did it give?
A: ~3 ONPG units

Variants of: B3
Assay: GST-pulldown; parent: 1; read off a plot

Q: Which ratio to parent does the source give for chain 1 MGKLHSKPAAVCKRRESPEGDSFAVSAAWARKGIEEWIGRQRCPGGVSGPRQLRLAGTIGRSTRELVGDVLRDTLSEEEEDDFRLEVALPPEKTDGLGSGDEKKMERVSEPCPGSKKQLKFEELQCDVSMEEDSRQEWTFTLYDFDNNGKVTREDITSLLHTIYEVVDSSVNHSPTSSKMLRVKLTVAPDGSQSKRSVLVNQADLQSARPRAETKPTEDLRSWEKKQRAPLRFQGDSRLEQSGCYHHCVDENIERRNHYLDLAGIENYTSQFGPGSPSVAQKSELPPHTSNPTRSRSHEPEAIHIPHRKPQGVDPASFHFLDTPIAKVSELQQRLRGTQDGSKHFVRSPKAQGKSVGVGHVARGARNKPPLGPAIPAVSPSAHLAASPALLPSLAPLGHKKHKHRAKESQQGCRGLQAPLASGGPVLGREHLRELPALVVYESQAGQPVQRHEHHHHHEHHHHYHHFYQT [chain 1 R288H] here?
A: ~0.14

Variants of: B3
Assay: yeast two-hybrid (quantitative ONPG assay); parent: 4.7; read off a plot

Q: Which response does the source give for chain 1 MGKLHSKPAAVCKRRESPEGDSFAVSAAWARKGIEEWIGRQRCPGGVSGPRQLRLAGTIGRSTRELVGDVLRDTLSEEEEDDFRLEVALPPEKTDGLGSGDEKKMERVSEPCPGSKKQLKFEELQCDVSMEEDSRQEWTFTLYDFDNNGKVTREDITSLLHTIYEVVDSSVNHSPTSSKMLRVKLTVAPDGSQSKRSVLVNQADLQSARPRAETKPTEDLRSWEKKQRAPLRFQGDSRLEQSGCYHHCVDENIERRNHYLDLAGIENYTSQFGPGSPSVAQKSELPPHTSNPTRSRSHEPEAIHIPHRKPQGVDPASFHFLDTPIAKVSELQQRLRGTQDGSKHFVRSPKAQGKSVGVGHVARGARNKPPLGPAIPAVSPSAHLAASPALLPSLAPLGHKKHKHRAKESQQGCRGLQAPLASGGPVLGREHLRELPALVVYESQAGQPVQRHEHHHHHEHHHHYHHFYQT [chain 1 R288H] here?
A: ~2.5 ONPG units
